# According to the supplement of paper PMC9732359:
# ± gives the uncertainty stated by the source.
# Test: protein stability index of a GFP-peptide fusion (yeast GPS) (PSI 1-4); higher = more stable; sorted into four equal gates, so the index is relative within each strain
# Method in brief: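 Plasmids in a pooled yeast library fused tiled 17-residue yeast protein peptides downstream of GFP and also expressed Cherry. Mid-log cultures grown without leucine were sorted into four equal gates by GFP/Cherry fluorescence ratio. Each gate's plasmids were PCR-amplified and Illumina-sequenced, and reads were matched to strains by barcodes. The protein stability index is derived by multiplying each gate's read frequency by its gate number and summing the results.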
Sequence,protein stability index (doa10∆),protein stability index (pdr5∆),protein stability index (san1∆),protein stability index (ubr1∆)
NEQAARAANQGALPPDL [CYT1],3.18 ± 0.058,3.32 ± 0.049,2.94 ± 0.053,3.03 ± 0.042
ELEFIQSLANIQYVTYL [SOH1],2.48 ± 0.068,2.54 ± 0.053,2.71 ± 0.052,2.72 ± 0.041
SEAEYSKDIETLKKEWL [YIL149C/MLP2],3.26 ± 0.083,3.04 ± 0.085,3.13 ± 0.051,3 ± 0.049
ARKSAPSTGGVKKPHRY [HHT1],1.66 ± 0.065,1.87 ± 0.052,2.03 ± 0.075,2.03 ± 0.063
LLIISCIIFITFEFINI [YML031W/NDC1],1.29 ± 0.038,1.43 ± 0.038,1.28 ± 0.079,1.28 ± 0.029
PRKLVLSSGENRYAFSQ [SMC4],1.39 ± 0.08,1.56 ± 0.058,1.72 ± 0.086,1.59 ± 0.054
NDPEYMDTSDDAFVATA [DLS1],3.1 ± 0.17,3.49 ± 0.16,3.33 ± 0.14,–
AQFQYTLDRNTAAETFK [RPL8A],2.15 ± 0.082,2.08 ± 0.082,2.64 ± 0.27,2.06 ± 0.049
SKEWFQLDDEDFDLLNK [FAS1],3.03 ± 0.11,3.31 ± 0.1,3.28 ± 0.084,3.06 ± 0.08
LAPNMQLNGNETFSTSA [SNF2],3.15 ± 0.14,3.17 ± 0.11,3.29 ± 0.068,2.92 ± 0.096
GLHKFVKGDLLQEAIDF [PRE10],2.93 ± 0.1,2.83 ± 0.079,3.09 ± 0.082,2.99 ± 0.053
TIYYVDSDGTRLKGDIF [PRE2],3.24 ± 0.067,3.24 ± 0.065,2.97 ± 0.096,3.16 ± 0.057
TGETYQRFVGHKSDVMS [ASC1],2.73 ± 0.14,3.09 ± 0.069,2.6 ± 0.096,2.94 ± 0.093
WMMNGALQILNSGIIPG [FAS2],1.7 ± 0.092,1.86 ± 0.092,2.52 ± 0.15,1.46 ± 0.24
LEKLIFDMTNHYNDSQQ [SRB8],2.82 ± 0.053,2.23 ± 0.045,2.47 ± 0.065,2.51 ± 0.036
YEMVIREKNALKRLAWQ [ISW2],2.08 ± 0.047,2.5 ± 0.062,2.32 ± 0.048,2.37 ± 0.055
GQGYRKVGIWPYFDYIF [YJL039C/NUP192],3.37 ± 0.14,3.21 ± 0.12,3.03 ± 0.12,2.62 ± 0.17
SLKKVDEIKAQRKEIKD [SMC4],–,2.94 ± 0.18,3.29 ± 0.16,3.4 ± 0.25
HEIITVGPHFKQANNFL [RPL7A],2.45 ± 0.062,2.7 ± 0.069,2.98 ± 0.061,2.54 ± 0.053
MENILQRCKSNAISLQL [YIL149C/MLP2],1.9 ± 0.046,2 ± 0.048,2.05 ± 0.071,1.57 ± 0.046

Sequence,protein stability index (doa10∆),protein stability index (pdr5∆),protein stability index (san1∆),protein stability index (ubr1∆)
PKNVKGEEDADEEETAE [RPN1],3.21 ± 0.17,3.16 ± 0.26,3.01 ± 0.14,–
LHVLPTLNSRALSGLYY [SNM1],2.45 ± 0.052,2.45 ± 0.05,2.12 ± 0.065,2.31 ± 0.042
HGILDDLETSLSQSSSY [MED2],2.98 ± 0.083,3.33 ± 0.1,3.12 ± 0.099,3.29 ± 0.14
EKAKEMIRLLGSESDDS [ECM29],2.51 ± 0.2,2.13 ± 0.11,–,1.53 ± 0.14
ASRSQLEKGEIELSDGS [YJL039C/NUP192],3.06 ± 0.081,3.02 ± 0.072,2.8 ± 0.07,3 ± 0.042
RHMVDDKIHARARGPMQ [RPB2],3.38 ± 0.17,3.48 ± 0.13,3.27 ± 0.16,2.7 ± 0.16
KKECALLISYGVSIENE [SRB4],1.75 ± 0.085,1.9 ± 0.16,1.96 ± 0.24,2.03 ± 0.16
TEEELQAAVPDNAEDDS [BRN1],3.2 ± 0.094,3.14 ± 0.089,3.05 ± 0.083,3.02 ± 0.055
FSSLAISEINFLHESSF [CSI1],2.21 ± 0.038,2.56 ± 0.035,2.26 ± 0.047,2.53 ± 0.039
QLFRTNKVQIMIATNVA [PRP28],1.5 ± 0.055,1.43 ± 0.064,1.48 ± 0.081,1.7 ± 0.036
LLLTIQLLIIEKEWENA [SRP72],1.42 ± 0.053,1.73 ± 0.059,2.07 ± 0.12,2.26 ± 0.045
VGRLWDQTFPINCNKET [ECM29],3.03 ± 0.14,2.87 ± 0.12,3.07 ± 0.11,3.09 ± 0.1
NVTMIDDLIHFTLKQWN [COR1],2.49 ± 0.14,2.89 ± 0.16,2.79 ± 0.081,2.74 ± 0.099
SPIKNGSCTRQLAGKSG [YOR098C/NUP1],3.32 ± 0.084,3.02 ± 0.056,2.35 ± 0.07,3.08 ± 0.069
AIKKSSMKMELLKKELL [SMC2],2.89 ± 0.17,2.19 ± 0.095,2.78 ± 0.2,2.13 ± 0.081
SNQERCHDEGNDMLQRN [RRI1],3.33 ± 0.075,3.2 ± 0.11,3.35 ± 0.098,3.16 ± 0.076
QIIFGVVEKKTVGSSNG [RPO21],1.66 ± 0.11,1.66 ± 0.098,1.66 ± 0.19,1.6 ± 0.066
IDKFIMVVQKYKLSTVV [GRR1],1.73 ± 0.068,1.9 ± 0.081,1.58 ± 0.11,1.86 ± 0.082
APTLSQTYINQELGFCE [SSN2],2.85 ± 0.18,2.81 ± 0.16,1.95 ± 0.22,2.92 ± 0.18
